What all share (test): BLI
Assay [1] addresses TFPI-Fc (human IgG-Fc-tagged TFPI without the GPI anchor) (UniProt P10646). To be noted: for response: parent: est. 0.0, read off a plot.
Assay [2] addresses Chicken TFPI-Fc (chicken). To be noted: domain or fragment.
Assay [3] addresses mTFPI-Fc (Fc-tagged mouse TFPI) (mouse) (UniProt O54819).
Assay [4] deals with mTFPI-Fc (Fc-tagged mouse TFPI) (UniProt O54819). To be noted: 2000 nM fragment, read at end of association (~145 s), parent: est. 0.03, read off a plot.
mTFPI-Fc (Fc-tagged mouse TFPI), sequence (O54819 29-217): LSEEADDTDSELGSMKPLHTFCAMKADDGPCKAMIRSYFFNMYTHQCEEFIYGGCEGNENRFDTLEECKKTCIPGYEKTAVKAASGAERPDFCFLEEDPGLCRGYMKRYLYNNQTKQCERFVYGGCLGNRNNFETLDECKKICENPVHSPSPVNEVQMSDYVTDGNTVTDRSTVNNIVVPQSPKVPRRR

Where two headings read alike, the source gives them in different places.

TFPI-Fc (human IgG-Fc-tagged TFPI without the GPI anchor), sequence (P10646 29-209): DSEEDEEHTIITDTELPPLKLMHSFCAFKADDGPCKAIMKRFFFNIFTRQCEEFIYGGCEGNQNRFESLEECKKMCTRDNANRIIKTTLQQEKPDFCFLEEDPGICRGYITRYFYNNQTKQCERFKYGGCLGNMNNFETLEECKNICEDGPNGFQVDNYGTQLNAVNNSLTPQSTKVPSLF
mTFPI-Fc (Fc-tagged mouse TFPI) (mouse), sequence (O54819 29-217): as the sequence (O54819 29-217) above

Consider “TcdB2.1_(1285-1804) L1505P; C1509Y; E1547K; N1596K; Q1599K”, for which the response in assay [1] was 0.1 nm.

In the case of TcdB2.1_(1285-1804) S1495I, the response in assay [1] worked out at 0.38 nm.

For the substance “TcdB2.1_(1285-1804) S1495I; L1505P; C1509Y; E1547K”, the response in assay [1] is 0.62 nm.

Consider “TcdB2.1_(1285-1804) S1495I; L1505P; C1509Y; N1596K; Q1599K”, for which, in assay [1], the response was found to be 0.66 nm.

One may read the Kd as the concentration at which binding is half-saturated. A low value points to a tighter complex. By koff is commonly meant the first-order rate constant of dissociation. Regarding TcdB2.11_(1286-1805), the Kd in assay [2] came to 0.205 µM; in assay [1] (domain or fragment), 0.133 µM; in assay [3] (domain or fragment), 0.0909 µM. The koff in assay [2] was 0.0165 s⁻¹; in assay [1] (domain or fragment), 0.0109 s⁻¹; in assay [3] (domain or fragment), 0.00623 s⁻¹.

As to “TcdB4.2_(1286-1805) (domain or fragment)”, the Kd in assay [1] amounted to 0.05 µM; in assay [3], 0.024 µM.

In the case of TcdB11.2_(1285-1804) F1506S; D1511Y, the response in assay [4] came to 0.74 nm.

In the case of “TcdB11.2_(1285-1804) F1506S; D1511Y; F1597S; V1598L”, in assay [4], the response was found to be 0.67 nm.

Turning to TcdB11.2_(1285-1804) F1597S; V1598L, the response in assay [4] came to 0.13 nm.

These data come from PMC9646764.
